These are literature values, as cited in article PMC2953804.

The Kd is the concentration at which binding is half-saturated.

The target in the data set is Mlh1 (Saccharomyces cerevisiae) (UniProt P38920).

For the substance Mlh1 (from UniProt P38920), the Kd is 3.14 µM.
